This assay deals with GFP-tagged human PPP1R15A (GFP-hR15A) (human) (UniProt O75807). The assay is described as follows: co-IP; as a5, then three washes in GFP-Trap lysis buffer with additional NaCl; 350 mM salt.

The source of these data is article PMC4394351.

UniProt O75807, sequence (O75807 whole entry): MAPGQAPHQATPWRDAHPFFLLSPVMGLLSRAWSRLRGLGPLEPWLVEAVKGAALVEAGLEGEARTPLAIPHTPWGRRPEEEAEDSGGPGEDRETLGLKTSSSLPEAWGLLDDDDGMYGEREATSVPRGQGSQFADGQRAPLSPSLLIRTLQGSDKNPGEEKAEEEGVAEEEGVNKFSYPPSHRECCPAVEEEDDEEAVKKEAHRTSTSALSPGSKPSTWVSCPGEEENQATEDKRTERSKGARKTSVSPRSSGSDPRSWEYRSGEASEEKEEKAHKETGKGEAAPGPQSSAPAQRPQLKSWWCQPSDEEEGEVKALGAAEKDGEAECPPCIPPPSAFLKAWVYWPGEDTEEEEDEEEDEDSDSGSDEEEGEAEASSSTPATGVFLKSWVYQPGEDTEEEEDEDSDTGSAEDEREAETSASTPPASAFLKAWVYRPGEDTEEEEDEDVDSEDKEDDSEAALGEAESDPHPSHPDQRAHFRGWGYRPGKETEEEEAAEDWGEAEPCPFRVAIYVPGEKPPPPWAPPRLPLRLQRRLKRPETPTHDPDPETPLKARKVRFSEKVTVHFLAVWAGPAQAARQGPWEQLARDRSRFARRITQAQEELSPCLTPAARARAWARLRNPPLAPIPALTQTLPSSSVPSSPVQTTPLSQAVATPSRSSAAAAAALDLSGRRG

With “actin (endogenous, HEK293T cells) (from UniProt P60709 1-375) (natural protein)”, the percent of the actin bound at 150 mM salt that was lost at 350 mM turned out to be 75%.
